Substitutions are numbered along the chain they refer to.
Biological target: p35 form of the 30664188.0.99 gene product (active fragment of PDGFD) (human, UniProt Q9GZP0 250-370)
Test: cell-based or functional assay

B1: CURA2 MAb 1.29 (antibody, IgG2, V domains shown)
VH: EVQLVQSGAEVKKPGESLKISCKGSGYSFTSYWIGWVRQMPGKGLEWMGIIYPGDSDTRYSPSFQGQATISADKSISTAYLQWSSLKASDTAMYYCARHVDVGATIGGYYYYYHGMDVWGQGTTVTVSS
VL: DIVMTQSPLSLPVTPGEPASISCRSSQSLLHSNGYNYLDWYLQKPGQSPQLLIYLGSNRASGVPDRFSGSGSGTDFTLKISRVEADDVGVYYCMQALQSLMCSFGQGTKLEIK
IC50 (ng/mL), BrdU incorporation assay on NIH 3T3 cells: 150 ng/mL

B2: CURA2 MAb 1.46 (antibody, IgG2, V domains shown)
VH: QVQLVQSGAEVKKPGASVKVSCKASGYSFTSYDINWVRQATGQGLEWMGWMNPNNGNTGYAQKFQGRVTMTRNTSISTAYMELSSLRSEDTAVYYCARDIVVVVTATDYYYGMDVWGQGTTVTVSS
VL: DIQMTQSPSSLSASVGDRVTITCRASQGIRNDLGWYQQKPGKAPKRLIFAASSLPSGVPSRFSGSGSGTEFTLTISSLQPEDFATYYCLQHSGYPPTFGQGTKVEIK
IC50 (ng/mL), BrdU incorporation assay on NIH 3T3 cells: 500 ng/mL

B3: CURA2 MAb 1.18 (antibody, IgG2, V domains shown)
VH: QVQLVQSGAEVKKPGASVKVSCKASGYTFTSYDINWVRQATGQGLEWMGWMNPNSGNTGYAQKFQGRVTMTRNTSISTAYMELSSLRSEDTAVYYCAREGIAVAGTYYYYYGMDVWGQGTTVTVSS
VL: B2 VL with F49Y, P55Q, Y87F, S92N, G93S, P96F, Q100P, E105D
IC50 (ng/mL), BrdU incorporation assay on NIH 3T3 cells: > 1000 ng/mL

B4: CURA2 MAb 1.19 (antibody, IgG2, V domains shown)
VH: QVQLVQSGAEVKKPGASVKVSCKASGYTFTSYDINWVRQATGQGLEWMGWMNPNSGNTGYAQKFQGRVTMTRNTSISTAYMELSSLRSEDTAVYYCARDVMITFGGVIVHYGMDVWGQGTTVTVSS
VL: B2 VL with F49Y, P55Q, E70D, S92N, G93S, Y94D, P96C, T97S, V104L, K107R
IC50 (ng/mL), BrdU incorporation assay on NIH 3T3 cells: 75 ng/mL

B5: CURA2 MAb 6.4 (antibody, IgG2, V domains shown)
VH: QVQLVQSGAEVKKPGASVKVSCKASGYTFTSYDINWVRQATGQGLEWMGWINPNSGNTDYAQKFQGRVTMTRDTSISTAYMELSSLRSEDTAIYYCVRGFGYSYNYDYYYGMDVWGQGTTVTVSS
VL: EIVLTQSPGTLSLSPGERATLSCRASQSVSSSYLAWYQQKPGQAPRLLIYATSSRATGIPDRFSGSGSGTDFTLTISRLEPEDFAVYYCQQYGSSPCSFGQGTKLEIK
IC50 (ng/mL), BrdU incorporation assay on NIH 3T3 cells: 75 ng/mL

B6: CURA2 MAb 1.45 (antibody, IgG2, V domains shown)
VH: B5 VH with I51M, D59G, D73N, I93V, V97A, F100S, N105G
VL: DIQMTQSPSSLSASVGDRVTINCRASQGISNDLAWYQQKPGKVPKLLIYAASTLQLGVPSRFSGSGSGTDFTLTISSLQPEDVATYYCQKYNSAPFTFGPGTKVDIK
IC50 (ng/mL), BrdU incorporation assay on NIH 3T3 cells: 750 ng/mL

B7: CURA2 MAb 1.51 (antibody, IgG2, V domains shown)
VH: EVQLVQSGAEVKKPGESLKISCKGSGYSFTSYWIGWVRQMPGKGLEWMGIIYPGDSDAKYSPSFQGQVTISADKSISTAYLQWSSLKASDTAMYYCARHYDYVWRNYRYTGWFDPWGQGTLVTVSS
VL: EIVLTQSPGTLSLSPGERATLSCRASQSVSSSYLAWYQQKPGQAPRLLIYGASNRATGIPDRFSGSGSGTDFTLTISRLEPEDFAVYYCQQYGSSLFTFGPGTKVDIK
IC50 (ng/mL), BrdU incorporation assay on NIH 3T3 cells: 1000 ng/mL

Reference: patent publication US20060293506A1 (Amgen, published 2006)
